Laboratory results as given in paper PMC3670212 (Cell, 2013).

What was measured:
[1] = target: E. coli DnaB replicative helicase (E. coli, UniProt P0ACB0 1-471); experiment: negative-stain electron microscopy
[2] = target: the molecule itself; experiment: negative-stain electron microscopy

Chain of E. coli DnaB replicative helicase (P0ACB0 whole entry): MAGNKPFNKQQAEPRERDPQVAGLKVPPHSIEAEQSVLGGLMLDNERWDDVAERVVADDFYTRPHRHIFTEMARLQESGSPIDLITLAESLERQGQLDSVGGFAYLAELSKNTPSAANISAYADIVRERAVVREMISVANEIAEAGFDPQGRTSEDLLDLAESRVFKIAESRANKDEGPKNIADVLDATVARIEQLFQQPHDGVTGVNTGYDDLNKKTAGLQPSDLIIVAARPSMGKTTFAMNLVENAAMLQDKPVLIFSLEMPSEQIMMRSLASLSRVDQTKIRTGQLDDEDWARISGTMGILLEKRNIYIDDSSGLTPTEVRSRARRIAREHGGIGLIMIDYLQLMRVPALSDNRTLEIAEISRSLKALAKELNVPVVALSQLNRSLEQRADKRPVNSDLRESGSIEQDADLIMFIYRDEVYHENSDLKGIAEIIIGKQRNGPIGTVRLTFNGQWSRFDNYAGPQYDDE

B1: E. coli DnaC helicase loader (natural protein, UniProt P0AEF0 1-245, looked up)
chain: MKNVGDLMQRLQKMMPAHIKPAFKTGEELLAWQKEQGAIRSAALERENRAMKMQRTFNRSGIRPLHQNCSFENYRVECEGQMNALSKARQYVEEFDGNIASFIFSGKPGTGKNHLAAAICNELLLRGKSVLIITVADIMSAMKDTFRNSGTSEEQLLNDLSNVDLLVIDEIGVQTESKYEKVIINQIVDRRSSSKRPTGMLTNSNMEEMTKLLGERVMDRMRLGNSLWVIFNWDSYRSRVTGKEY
[1]
  stoichiometry N: 6 DnaC subunits per DnaB hexamer
[2]
  stoichiometry N: 6
